In US10962528B2, “Blue fluorescent protein monomers and uses thereof” (WISYS TECHNOLOGY FOUNDATION, INC., priority 2015, dated 2021):
Positions count from the first letter of the chain named. Names and notes keep the numbering of the source.

B1: SFP-VP95insGG: L135E monoSFP extended with glycine residues at position 95, SEQ ID NO:6 (protein)
chain: MFIKPGRCPKPAVQEDFDAARYLGVWYDIQRLPNKFQKGECATATYSLSPGVGFSVFNRERLANGTIKSVIGSAIAEDPCEPAKLQFFHENAAPGGVPYWVLSTDYDNYALVYSCINSFEGASHAAYASIVSRQPTLPEETIKKLQGTMSSFGVGVDTLLTTNQDAAYCSAMNQ
B2: SFP-V71E: monomeric SFP variant V71E, SEQ ID NO:2 (protein)
chain: FIKPGRCPKPAVQEDFDAARYLGVWYDIQRLPNKFQKGECATATYSLSPGEGFSVFNRERLANGTIKSVIGSAIAEDPCEPAKLQFFHENAAPVPYWVLSTDYDNYALVYSCINLGASHAAYASIVSRQPTLPEETIKKLQGTMSSFGVGVDTLLTTNQDAAYCSAMNQ
B3: SFP-L135E: monomeric SFP variant L135E, SEQ ID NO:3 (protein)
chain: B2 chain with E51V, L115E
B4: SFP-A137E: monomeric SFP variant A137E, SEQ ID NO:4 (protein)
chain: B2 chain with E51V, A117E
B5: Wild-type SFP: Sandercyanin fluorescent protein from walleye Sander vitreus mucus, biliverdin-binding lipocalin tetramer; SEQ ID NO:1 (recombinant SEQ ID NO:31) (protein, listed as Sander vitreus)
chain: MNAIQVISLTLLSVLAAKAMFIKPGRCPKPAVQEDFDAARYLGVWYDIQRLPNKFQKGECATATYSLSPGVGFSVFNRERLANGTIKSVIGSAIAEDPCEPAKLQFFHENAAPVPYWVLSTDYDNYALVYSCINLGASHAAYASIVSRQPTLPEETIKKLQGTMSSFGVGVDTLLTTNQDAAYCSAMAQ
modifications: biliverdin chromophore
B6: SFP-FH88insGG: L135E monoSFP extended with glycine residues at position 88, SEQ ID NO:5 (protein)
chain: MFIKPGRCPKPAVQEDFDAARYLGVWYDIQRLPNKFQKGECATATYSLSPGVGFSVFNRERLANGTIKSVIGSAIAEDPCEPAKLQFGGFHENAAPVPYWVLSTDYDNYALVYSCINEGASHAAYASIVSRQPTLPEETIKKLQGTMSSFGVGVDTLLTTNQDAAYCSAMNQ

Experiments:
[1] = Fluorescence of free biliverdin in different solvent conditions; format: physicochemical; conditions: increased hydrophobicity of the medium
Description: FIG. 11F Effect of hydrophobicity of solvent on fluorescence spectra of biliverdin monitored at excitation wavelengths of (left) 375 nm and (right) 600 nm. Labels are biliverdin in DMSO 1150, biliverdin in acetone 1152, biliverdin in ethanol 1154, biliverdin in benzene 1156, and biliverdin in toluene 1158.
FIG. 11G Effect of viscosity of solvent (PEG 400) on fluorescence spectra of biliverdin monitored at excitation wavelengths of (left) 375 nm and (right) 600 nm. Labels are 0% PEG400 1160, 5% PEG400 1162, 10% PEG400 1164, and 15% PEG400 1166.
We performed experiments with free biliverdin in different solvents conditions, to understand the molecular basis of the observed fluorescent properties of Sandercyanin-BV complex. […] A similar trend was observed on increasing the viscosity of medium with increased polyethylene glycol and changing the pH of medium to pH 8.8-9.5.

[2] = Photobleaching / photo-stability studies; format: physicochemical
Method: FIGS. 11C-11D (C) Titration of apo-SFP (20 uM) with BV IXα measured at 675 nm with λex=375 nm (green) and 630 nm (red). (D) Photo-bleaching kinetics of Sandercyanin and free-biliverdin (BV).
(§1) All experiments were performed with purified SFP samples (apo and holo forms) at pH 7.5 and room temperature. UV-Visible absorbance spectra of native and recombinant SFP were recorded from 800 to 200 nm with ultraspec 2100 pro spectrophotometer from Amersham Biosciences. CD spectra were measured on JASCO J-815 Spectropolarimeter. Steady state fluorescence, excitation, binding and photobleaching studies were monitored on Horiba Jobin Yvon Fluoromax-4 fluorimeter. Data analysis were done using Origin6 and Origin8 software. Hydrogen was exchanged with Deuterium by increasing concentrations of D2O to a standard protein concentration. Deuteriated proteins were prepared in the same buffer, incubated for 15 minutes, and monitored for spectral properties.

apoSFP = assay: Binding of apoSFP with other tetrapyrroles monitored by fluorescence; set-up: species or system Sander vitreus; conditions: excitation at 375 nm and 630 nm
Description: FIG. 11E Binding of apoSFP with other tetrapyrroles monitored by fluorescence on excitation at (left) 375 nm and (right) 630 nm.
To examine the specificity of Sandercyanin to bilverdin IXa, we tested other BV-like tetrapyrrol compounds: hemin, bilirubin, and esterified BV derivatives.

[3] = Steady state fluorescence spectra and quantum yield; format: physicochemical; conditions: for brightness relative to L135E monoSFP: glycine loop extension; for Quantum yield / Ex/Em1, emission / Ex/Em1, excitation: in complex with biliverdin
Method: as §1
Characterization of monoSFP Variants—MonoSFP variants were characterized by size-exclusion chromatography during purification of the proteins. We further characterized the spectral properties and binding-efficiencies of a few of these monoSFPs (Tables 2 and 4), and found them to be similar to wild-type SFP (FIG. 2, FIG. 3, Table 4). They have far-red to near infra-red fluorescence with large Stokes shift. […] To test this, we performed detergent (Triton X-100) assays with the monoSFPs and measured absorbance and fluorescence spectra. Further, we made attempts to extend one of the loops which encloses biliverdin in the centre of the protein. Two mutants, FH88insGG and VP95insGG, were extended with glycine residues at the 88th and 95th positions in the amino acid chain of L135E monoSFP mutant. One hypothesis was that extension would prevent photon loss due to solvent exposure of the ligand and enhance the quantum efficiency.

[4] = Biliverdin binding of SFP and monomeric variants (fluorescence titration, UV-visible absorbance)
Method: as §1
All SFP variants were expressed using E. coli BL21*(DE3) cells. […] Thus, refolded purified SFP was checked using an analytical gel filtration column for oligomerization state and biliverdin (BV) binding by UV-visible absorbance and fluorescence spectroscopy (FIGS. 1A-1D).
Characterization of monoSFP Variants—MonoSFP variants were characterized by size-exclusion chromatography during purification of the proteins. […] They have far-red to near infra-red fluorescence with large Stokes shift. […] To test this, we performed detergent (Triton X-100) assays with the monoSFPs and measured absorbance and fluorescence spectra. […]

[5] = excitation at 380 nm and 630 nm, Yu et al. 2008; cited from earlier work
[6] = UV-Visible absorbance spectra; format: physicochemical
Method: as §1, with “All experiments were performed with purified SFP samples (apo and holo forms) at pH 7.5 and room temperature.” left out

| Molecule | Quantum yield [3] | Ex/Em1, emission ([3]; UV/blue excitation) [nm] | Ex/Em1, excitation ([3]; UV/blue excitation) [nm] | Ex/Em1, emission ([3]; red excitation) [nm] | Ex/Em1, excitation ([3]; red excitation) [nm] | further results |
| --- | --- | --- | --- | --- | --- | --- |
| C=CC1=C(C)/C(=C/C2=NC(=C\c3[nH]c(/C=C4\NC(=O)C(C)=C4C=C)c(C)c3CCC(=O)O)/C(CCC(=O)O)=C2C)NC1=O [Biliverdin, Biliverdin IXα, reference compound] | – | – | – | – | – | far red fluorescence of free biliverdin [1]: enhanced far red fluorescence; bleaching of free form relative to complex with Sandercyanin [2]: bleaches faster |
| C=CC1=C(C)c2cc3[n-]c(cc4[n-]c(cc5nc(cc1n2)C(C)=C5C=C)c(C)c4CCC(=O)O)c(CCC(=O)O)c3C.[Cl-].[Fe+3] [hemin] | – | – | – | – | – | binding and fluorescence with Sandercyanin (apoSFP): does not show binding and fluorescence |
| B1 | 0.003 | 657 | 380 | 653 | 570 | brightness relative to L135E monoSFP [3]: did not show significantly increased brightness; binding to biliverdin [4]: retained binding to biliverdin |
| B2 | 0.003 | 670 | 380 | 660 | 600 | – |
| B3 | 0.025 | 682 | 380 | 676 | 600 | – |
| B4 | 0.003 | 663 | 380 | 653 | 580 | – |
| B5 | 0.016 | 675 | 375 | 675 | 630 | excitation maxima [3]: 375 nm; fluorescence intensity with D2O ([3]; increasing concentrations of D2O, no changes in the absorbance): increased fluorescence intensity; emission maxima [5]: 678 nm; Molar extinction coefficient at 375 nm ([6]; phosphate buffer of pH 7.4, 375 nm): 21,000 M^−1 cm^−1; Molar extinction coefficient at 630 nm ([6]; phosphate buffer of pH 7.4, 630 nm): 13,500 M^−1 cm^−1; photo-stability of fluorescence ([2]; overnight exposure with UV or red light): does not bleach significantly; bleaching of fluorescence ([2]; walleye mucous cells and solution, several hours of excitation and emission): do not bleach |
| B6 | 0.002 | 663 | 380 | 653 | 570 | brightness relative to L135E monoSFP [3]: did not show significantly increased brightness; binding to biliverdin [4]: retained binding to biliverdin |
